Laboratory results from publication PMC4775227, “Molecular mechanism of thermosensory function of human heat shock transcription factor Hsf1” (eLife, 2016).
Where “and” joins values, the source holds several entries; their conditions need not be identical. Identical values can stand only once.

What was measured:
[1] = target: T1, human heat shock transcription factor Hsf1, wild type (human), Q00613; assay: HDX-MS; kinetics: 5 µM Hsf1 heat-shocked 10-1000 s at 35, 37, 39 or 42°C, then 30 s in D2O at 20°C; single exponential fits of the low-exchanging fraction; details: remark: other sources report otherwise
T1 chain: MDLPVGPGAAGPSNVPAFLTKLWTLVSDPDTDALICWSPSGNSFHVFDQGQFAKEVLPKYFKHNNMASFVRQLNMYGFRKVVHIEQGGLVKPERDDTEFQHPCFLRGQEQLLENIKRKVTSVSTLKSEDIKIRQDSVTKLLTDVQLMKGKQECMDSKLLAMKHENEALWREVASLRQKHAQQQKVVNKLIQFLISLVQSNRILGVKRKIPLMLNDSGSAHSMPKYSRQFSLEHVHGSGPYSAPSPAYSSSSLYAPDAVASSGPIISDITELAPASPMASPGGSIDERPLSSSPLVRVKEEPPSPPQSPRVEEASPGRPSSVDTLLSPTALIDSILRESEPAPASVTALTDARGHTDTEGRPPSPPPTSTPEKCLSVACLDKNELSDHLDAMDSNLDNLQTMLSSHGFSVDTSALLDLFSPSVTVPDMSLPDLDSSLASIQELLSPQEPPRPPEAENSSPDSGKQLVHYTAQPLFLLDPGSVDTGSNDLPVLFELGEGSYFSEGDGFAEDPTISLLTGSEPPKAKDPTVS

[2] = target: T1, human heat shock transcription factor …; assay: native gel or EMSA; blue native polyacrylamide gel; monomeric Hsf1 after heat shock (42°C; pre-incubation at different temperatures for 10 min), Hsf1-buffer; also detected by immunoblot with Hsf1 antiserum; details: remark: other sources report otherwise
[3] = target: T1, human heat shock transcription factor …; assay: HDX-MS + fluorescence polarisation; monomer to dimer; fit of the quadratic solution of the law of mass action to Tm values (10 min incubation, wild type) against Hsf1 concentration, assuming the fraction of dimer determines Tm; rough estimate; details: remark: other sources report otherwise
[4] = target: T1, human heat shock transcription factor …; assay: SEC; S200 HiLoad 16/60 in Hsf1-buffer (25 mM Hepes pH 7.4, 150 mM NaCl, 10% glycerol, 2 mM DTT), 4°C, after Ni-IDA and cleavage of the SUMO tag; details: remark: other sources report otherwise
[5] = target: the molecule itself; assay: HDX-MS; 5 µM Hsf1 or mutant in Hsf1-buffer pre-incubated 10 or 30 min at 20-42°C, diluted 1:20 into D2O buffer, 30 s at 20°C, quenched, online pepsin, LC-MS

Row | Binder | rate of increase of the low-exchanging HR-A/B population (trimerization) at 35°C [1] [s⁻¹] | rate of increase of the low-exchanging HR-A/B population (trimerization) at 37°C [1] [s⁻¹] | rate of increase of the low-exchanging HR-A/B population (trimerization) at 39°C [1] [s⁻¹] | rate of increase of the low-exchanging HR-A/B population (trimerization) at 42°C [1] [s⁻¹] | stoichiometry N [2] | Kd [3] [nM] | stoichiometry N [4] | binding result [5]
1 | human heat shock transcription factor Hsf1, wild type, Q00613 1-529 (natural protein) MDLPVGPGAAGPSNVPAFLTKLWTLVSDPDTDALICWSPSGNSFHVFDQGQFAKEVLPKYFKHNNMASFVRQLNMYGFRKVVHIEQGGLVKPERDDTEFQHPCFLRGQEQLLENIKRKVTSVSTLKSEDIKIRQDSVTKLLTDVQLMKGKQECMDSKLLAMKHENEALWREVASLRQKHAQQQKVVNKLIQFLISLVQSNRILGVKRKIPLMLNDSGSAHSMPKYSRQFSLEHVHGSGPYSAPSPAYSSSSLYAPDAVASSGPIISDITELAPASPMASPGGSIDERPLSSSPLVRVKEEPPSPPQSPRVEEASPGRPSSVDTLLSPTALIDSILRESEPAPASVTALTDARGHTDTEGRPPSPPPTSTPEKCLSVACLDKNELSDHLDAMDSNLDNLQTMLSSHGFSVDTSALLDLFSPSVTVPDMSLPDLDSSLASIQELLSPQEPPRPPEAENSSPDSGKQLVHYTAQPLFLLDPGSVDTGSNDLPVLFELGEGSYFSEGDGFAEDPTISLLTGSEPPKAKDPTVS | 0.0018 | 0.0033 | 0.0094 | 0.016 | 3 | 330 | 2 and 3 | 
2 | human Hsf1-S303D (natural protein, UniProt Q00613 1-529, looked up, heat shock transcription factor 1 (Hsf1), human, phosphomimetic variant S303D; Probably made and purified as the wild type (6xHis-SUMO fusion in E. coli, tag cleaved); also called phosphomimetic Hsf1 variant) MDLPVGPGAAGPSNVPAFLTKLWTLVSDPDTDALICWSPSGNSFHVFDQGQFAKEVLPKYFKHNNMASFVRQLNMYGFRKVVHIEQGGLVKPERDDTEFQHPCFLRGQEQLLENIKRKVTSVSTLKSEDIKIRQDSVTKLLTDVQLMKGKQECMDSKLLAMKHENEALWREVASLRQKHAQQQKVVNKLIQFLISLVQSNRILGVKRKIPLMLNDSGSAHSMPKYSRQFSLEHVHGSGPYSAPSPAYSSSSLYAPDAVASSGPIISDITELAPASPMASPGGSIDERPLSSSPLVRVKEEPPDPPQSPRVEEASPGRPSSVDTLLSPTALIDSILRESEPAPASVTALTDARGHTDTEGRPPSPPPTSTPEKCLSVACLDKNELSDHLDAMDSNLDNLQTMLSSHGFSVDTSALLDLFSPSVTVPDMSLPDLDSSLASIQELLSPQEPPRPPEAENSSPDSGKQLVHYTAQPLFLLDPGSVDTGSNDLPVLFELGEGSYFSEGDGFAEDPTISLLTGSEPPKAKDPTVS |  |  |  |  |  |  |  | binds
3 | human Hsf1-S307D (natural protein, UniProt Q00613 1-529, looked up, heat shock transcription factor 1 (Hsf1), human, phosphomimetic variant S307D; Probably made and purified as the wild type (6xHis-SUMO fusion in E. coli, tag cleaved); also called phosphomimetic Hsf1 variant) MDLPVGPGAAGPSNVPAFLTKLWTLVSDPDTDALICWSPSGNSFHVFDQGQFAKEVLPKYFKHNNMASFVRQLNMYGFRKVVHIEQGGLVKPERDDTEFQHPCFLRGQEQLLENIKRKVTSVSTLKSEDIKIRQDSVTKLLTDVQLMKGKQECMDSKLLAMKHENEALWREVASLRQKHAQQQKVVNKLIQFLISLVQSNRILGVKRKIPLMLNDSGSAHSMPKYSRQFSLEHVHGSGPYSAPSPAYSSSSLYAPDAVASSGPIISDITELAPASPMASPGGSIDERPLSSSPLVRVKEEPPSPPQDPRVEEASPGRPSSVDTLLSPTALIDSILRESEPAPASVTALTDARGHTDTEGRPPSPPPTSTPEKCLSVACLDKNELSDHLDAMDSNLDNLQTMLSSHGFSVDTSALLDLFSPSVTVPDMSLPDLDSSLASIQELLSPQEPPRPPEAENSSPDSGKQLVHYTAQPLFLLDPGSVDTGSNDLPVLFELGEGSYFSEGDGFAEDPTISLLTGSEPPKAKDPTVS |  |  |  |  |  |  |  | binds
